Our source for the Kd values is article PMC9300723.

The assay concerns the target F5M-σ^A1.1^(S2C), fluorescein-labelled σ1.1 domain of Pae σ^A (Pseudomonas aeruginosa). The assay is described as follows: fluorescence polarisation; 2 nM fluorescein-labelled σ1.1 domain, Pae RNAP core enzyme 0-4096 nM; 10 mM Tris-HCl pH 7.7, 100 mM NaCl, 1 mM DTT, 1% glycerol, 0.025% Tween-20; 10 min at room temperature.

With “Pae RNAP core enzyme (from UniProt O52760 1-333; Q51561 1-1357; Q9HWC9 2-1399; B7V5M8 1-88) (complex)”, the Kd amounted to 220 nM.
